Results: the RNAGym collection of RNA variant scans (doi:10.1073/pnas.2313332121)

B1: TPR t1 (parent)
chain: GACCAAUCUGCCCUCAGAGCUCGAGAACAUCUUCGGAUGCAGAGGAGGCAGGCUUCGGUGGCGCGAUAGCGCCAACGUCCUCAACCUCCAAUGCAUCCCACCACAUGAUGAUGCCUGAAGAGCCUUGGUUUUUUG

Variants of: B1
Test: polymerase ribozyme fitness, log enrichment relative to wild type (log ratio); higher = more active; in vitro selection for triplet polymerase activity
Method in brief: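 Genotype fitness is the logarithm of its enrichment divided by wild-type enrichment, using inverse-variance-weighted averages of replicates. That logarithm is base 2. Enrichment was measured by Illumina sequencing of input and output libraries from one triplicate in vitro selection round, with frozen incubation at −7 °C, on PCR-built, transcribed mutant libraries of each subunit of a heterodimeric triplet polymerase ribozyme, retaining genotypes with ≥10 input reads and ≥1 read per output.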
For G10C G63A C80U, the “polymerase ribozyme fitness (log ratio)” value was -3.07.
In the case of G10A C22A C79A G120U C123G, the “polymerase ribozyme fitness (log ratio)” value is reported as -5.58.
With G10C C64U C123G U133A the “polymerase ribozyme fitness (log ratio)” value was 1.47.
For G10C A75U C98A U109A G127C, the “polymerase ribozyme fitness (log ratio)” value was -5.13.
In the case of G10C C40G C56G G77U U112C, the “polymerase ribozyme fitness (log ratio)” value is reported as -0.0532.
For G10A A66G, the “polymerase ribozyme fitness (log ratio)” value was -1.17.
For G10A C11U, the “polymerase ribozyme fitness (log ratio)” value was -0.673.
With G10C C34A C124A the “polymerase ribozyme fitness (log ratio)” value was -3.03.
In the case of G10A C62U, the “polymerase ribozyme fitness (log ratio)” value is reported as 0.124.
In the case of G10A C62A, the “polymerase ribozyme fitness (log ratio)” value is reported as -0.929.
With G10A C72A U87G C102U the “polymerase ribozyme fitness (log ratio)” value was -1.09.
For G10U A41C G48U G113C, the “polymerase ribozyme fitness (log ratio)” value was -3.37.
With G10C U32C C114U the “polymerase ribozyme fitness (log ratio)” value was -0.699.
With G10A G69U C79A A103C C115U G122A the “polymerase ribozyme fitness (log ratio)” value was -5.83.
For G10A G35A G77A, the “polymerase ribozyme fitness (log ratio)” value was -5.04.
For G10A G17A A37G G42U C53A C64U A100U, the “polymerase ribozyme fitness (log ratio)” value was -5.75.
With U9G U38G the “polymerase ribozyme fitness (log ratio)” value was -0.556.
With G10A C70U the “polymerase ribozyme fitness (log ratio)” value was -0.224.
In the case of G10C C115A G128A, the “polymerase ribozyme fitness (log ratio)” value is reported as -3.1.
For G10A G117C, the “polymerase ribozyme fitness (log ratio)” value was -4.43.
With U9G U32C G52C the “polymerase ribozyme fitness (log ratio)” value was -0.471.
For G10C G48A C64U G117U U125G, the “polymerase ribozyme fitness (log ratio)” value was -6.03.
With G10A A29G the “polymerase ribozyme fitness (log ratio)” value was -2.58.
In the case of G10U A16U C72U C79A C114G C123A U130G, the “polymerase ribozyme fitness (log ratio)” value is reported as -6.07.
In the case of G10A A50G C64U C115G, the “polymerase ribozyme fitness (log ratio)” value is reported as -3.37.
For G10U A27G, the “polymerase ribozyme fitness (log ratio)” value was -0.702.
For U9G G107U, the “polymerase ribozyme fitness (log ratio)” value was -3.93.
For G10A U116C, the “polymerase ribozyme fitness (log ratio)” value was -0.237.
For G10A U131A, the “polymerase ribozyme fitness (log ratio)” value was -0.339.
For U9G U54C G69A C80U, the “polymerase ribozyme fitness (log ratio)” value was -2.99.
For G10A C53U G63U, the “polymerase ribozyme fitness (log ratio)” value was -0.334.
In the case of U9G G93A G128A U129G, the “polymerase ribozyme fitness (log ratio)” value is reported as -1.96.
For G10C U32C G113U, the “polymerase ribozyme fitness (log ratio)” value was -3.81.
For G10C U87C, the “polymerase ribozyme fitness (log ratio)” value was -1.18.
For G10C C73G C80U, the “polymerase ribozyme fitness (log ratio)” value was -3.34.
With G10A A41C G52U C79U C82G U130G the “polymerase ribozyme fitness (log ratio)” value was -2.72.
With G10C C13G G35A G61A C114U the “polymerase ribozyme fitness (log ratio)” value was -5.47.
For G10A C70A G122A, the “polymerase ribozyme fitness (log ratio)” value was -1.23.
With G10U A43U C73G A108G the “polymerase ribozyme fitness (log ratio)” value was -6.59.
For G10A C11G A27U G60A U78G C82A G93A A105G U109G, the “polymerase ribozyme fitness (log ratio)” value was -6.59.
With G10A A16U C88A U92C G120U the “polymerase ribozyme fitness (log ratio)” value was -1.32.
In the case of G10A C13A C70U, the “polymerase ribozyme fitness (log ratio)” value is reported as -1.36.
For G10C C20A U54A C64U C88G A118U, the “polymerase ribozyme fitness (log ratio)” value was -2.75.
For U9G G63A U92G C98G C115G G128A, the “polymerase ribozyme fitness (log ratio)” value was -6.12.
For G10A G120U, the “polymerase ribozyme fitness (log ratio)” value was 1.07.
With G10C C13A C82U A83C the “polymerase ribozyme fitness (log ratio)” value was -0.888.
For G10A A41C G61U U92A U133C, the “polymerase ribozyme fitness (log ratio)” value was -0.847.
In the case of G10A U55A G60C G122A, the “polymerase ribozyme fitness (log ratio)” value is reported as -0.167.
For U9G U21C C70U, the “polymerase ribozyme fitness (log ratio)” value was -1.31.
In the case of G10A G42U C49A C70G C98A U112G U130G, the “polymerase ribozyme fitness (log ratio)” value is reported as -6.93.
In the case of U9G G61A C97U A100C A108G, the “polymerase ribozyme fitness (log ratio)” value is reported as -2.88.
For G10A A43G C76U C89U A111C, the “polymerase ribozyme fitness (log ratio)” value was -4.
In the case of U9G U32C G52C G110C, the “polymerase ribozyme fitness (log ratio)” value is reported as -5.7.
For G10A C11U C13U C62A C79A U106C G122A, the “polymerase ribozyme fitness (log ratio)” value was -3.29.
In the case of G10A A83C G128U, the “polymerase ribozyme fitness (log ratio)” value is reported as -2.33.
With G10A C49G G63U the “polymerase ribozyme fitness (log ratio)” value was -0.848.
With G10A U21A A27G C53A the “polymerase ribozyme fitness (log ratio)” value was -0.87.
In the case of G10C U38G C85U G122A C123G, the “polymerase ribozyme fitness (log ratio)” value is reported as 0.725.
For G10A A16U C85G, the “polymerase ribozyme fitness (log ratio)” value was -3.05.
With G10C G71U C86U the “polymerase ribozyme fitness (log ratio)” value was -1.57.
In the case of G10A U38G G48C C79A, the “polymerase ribozyme fitness (log ratio)” value is reported as -4.53.
For G10C C49A G71U, the “polymerase ribozyme fitness (log ratio)” value was -1.17.
In the case of G10A C22U, the “polymerase ribozyme fitness (log ratio)” value is reported as -4.59.
With G10A A74G A119U the “polymerase ribozyme fitness (log ratio)” value was -0.71.
For G10C C40G C56G G61A A68U G77U U112C, the “polymerase ribozyme fitness (log ratio)” value was -6.74.
With G10A A74C U78A A111G the “polymerase ribozyme fitness (log ratio)” value was -0.232.
For G10A C22G G61U A95U, the “polymerase ribozyme fitness (log ratio)” value was -3.63.
For G10A U38G, the “polymerase ribozyme fitness (log ratio)” value was 0.0174.
For G10A U81A G110A U129A, the “polymerase ribozyme fitness (log ratio)” value was -5.01.
For G10C U54C G93C C102A, the “polymerase ribozyme fitness (log ratio)” value was -5.34.
In the case of G10A A43G A119U, the “polymerase ribozyme fitness (log ratio)” value is reported as -1.73.
For G10C C11G U21A, the “polymerase ribozyme fitness (log ratio)” value was 0.0374.
With G10U A29C G60A the “polymerase ribozyme fitness (log ratio)” value was -3.27.
For G10A G60A C82A C94U C123A, the “polymerase ribozyme fitness (log ratio)” value was 1.22.
For G10A C22G G61A G71C A111U G117A, the “polymerase ribozyme fitness (log ratio)” value was -7.23.
For G10U A18U A29U U54A C73A A121C, the “polymerase ribozyme fitness (log ratio)” value was -1.7.
In the case of G10C A37U A84G C85A C94U C101G, the “polymerase ribozyme fitness (log ratio)” value is reported as -4.54.
In the case of G10A C70U C79U C82G G120C G128U, the “polymerase ribozyme fitness (log ratio)” value is reported as -2.34.
In the case of G10U A37C C53G A95G, the “polymerase ribozyme fitness (log ratio)” value is reported as -0.638.
In the case of G10A A43G, the “polymerase ribozyme fitness (log ratio)” value is reported as -1.53.
For G10A C11G G71A, the “polymerase ribozyme fitness (log ratio)” value was -0.829.
In the case of U9G G61A C76G, the “polymerase ribozyme fitness (log ratio)” value is reported as -4.18.
In the case of G10A C97G, the “polymerase ribozyme fitness (log ratio)” value is reported as -3.95.
For G10A C97A G120U, the “polymerase ribozyme fitness (log ratio)” value was -4.42.
